The record followed here is patent US20240084027A1 (BEIJING MABWORKS, published 2024).

Read-outs that look alike come from different tables or passages of the source.

For one assay, the target named is T1, human CD40-his protein (human, UniProt P25942 21-193).
T1 construct: Bought protein; also called human CD40 protein; CD40 molecules; not shown: his tag
In words: SPR (BIAcore 8K), human CD40-his coupled to CM5 chip, antibody injected. An excerpt: (§1) Using BIAcore™ 8K instrument (GE Life Sciences, US), the binding affinity of the bi- or multi-specific antibodies to human CD40 and PD-L1 was quantitatively measured. Briefly, 100-200 response units (RU) of human CD40-his protein (Cat #:10774-1108H, Sino Biological, CN) or human PD-L1-his protein (Cat #:10084-H08H, Sino Biological, CN) were coupled to CM5 biosensor chips (Cat #:BR-1005-30, GE Life Sciences. USA). The un-reacted groups were then blocked with 1 M ethanolamine. Serially diluted antibodies at concentrations ranging from 0.3 μM to 10 μM were injected into the SPR running buffer (HBS-EP buffer, pH7.4, Cat #:BR-1006-69, GE Life Sciences, USA) at 30 μL/min. The binding affinity was calculated with the RUs of blank controls subtracted, and the association rate (kₐ) and dissociation rate (kd) were determined using the one-to-one Langmuir binding model (BIA Evaluation Software, GE Life Sciences, USA). The equilibrium dissociation constant KD was calculated as the kd/kₐ ratio.
On the technique in general: Surface plasmon resonance follows binding to a sensor surface in real time, without labels.

In the next assay the target is T2, human PD-L1-his protein (human, UniProt Q9NZQ7 19-238).
T2 construct: extracellular domain; also called human PD-L1 (ECD)-his; human PD-L1 protein; not shown: his tag
Put plainly: SPR (BIAcore 8K), human PD-L1-his coupled to CM5 chip, antibody injected.
Source text: as §1

Assay [1] has as its target T3, human CD40 on HEK293A/human CD40 cells (human, UniProt P25942 21-277).
T3 construct: also called HEK-Blue/CD40 cells
In words: FACS on HEK293A/human CD40 cells. As for the experimental part:
(§2) The bispecific antibodies as prepared above were tested for their binding capability to cell surface human, monkey and mouse CD40 proteins by FACS, using the HEK293A cells prepared in Example 1 that stably expressed human, monkey or mouse CD40. Briefly, a 96-well plate was seeded with 10⁵ HEK293A cells in 50 μl PBS, and then added with 100 μl serially diluted anti-CD40 antibody 714VH2VL2 and the bispecific antibodies of the disclosure (starting concentration at 40 μg/ml). After incubation at 4° C. for 1 h, the plate was washed by PBST for 3 times. The plate was added with 1:500 diluted APC-goat anti-mouse IgG (Cat #:405308, BioLegen, USA), incubated at 4° for 1 h, washed with PBS for 3 times, and subjected to fluorescence measurement in a FACS machine (BD).
(§3) Following the protocols in Example 4 and Example 5, the bi- or multi-specific antibodies of the disclosure were tested for their binding capability to human PD-L1 and human CD40 proteins by FACS using the HEK293A cells prepared in Example 1 that stably expressed human PD-L1 or human CD40.

In assay [2] the target is T4, human PD-L1 on HEK293A/human PD-L1 cells (human, UniProt Q9NZQ7 19-290). In words: FACS on HEK293A/human PD-L1 cells. How it is done:
as §2, §3

Assay [3] has as its target T3, human CD40 on HEK293A/human CD40 cells. Put plainly: cell-based or functional assay.
In assay [4] the target is T4, human PD-L1 on HEK293A/human PD-L1 cells. In words: FACS blocking assay on HEK293A/human PD-L1 cells; blocked ligand PD-1-Fc. How it is done: The bispecific antibodies were tested for their blocking activity on PD-1-PD-L1 binding by FACS using the HEK293A cells stably expressing human PD-L1 molecules as prepared in Example 1. Briefly, a 96-well plate was seeded with 10⁵ HEK293A/human PD-L1 cells in 100 μl cell culture medium, and then added with 50 μl serially diluted anti-PD-L1 antibody 56E5VH5VL4 or MBS307-3 molecules. After incubation at 4° C. for 1 h. the plate was washed with PBST for 3 times, added with 100 μl 200 μg/ml PD-1-Fc fusion proteins (Cat #:10377-10211, Sino Biological, CN), incubated at 4° C. for 1 h, washed with PBST for 3 times, and added with 1:500 diluted PE-goat anti-human IgG (Cat #:PAI-86078, Thermofisher, USA). After incubation at 4° C. for 1 h, the plate was washed with PBST for 3 times and measured for fluorescence using a FACS machine (BD).
Following the protocol of Example 7, the bi- or multi-specific antibodies were tested for their capability to block PD-1-PD-L1 binding by FACS, using the HEK293A cells prepared in Example 1 that stably expressed human PD-L1 molecules.

Assay [5] addresses T3, human CD40 on HEK293A/human CD40 cells. Put plainly: cell-based or functional assay. The source holds these as a separate data set.
Assay [6] shares this target. In words: FACS on HEK293A/human CD40 cells. How it is done:
as §2, §3
The source holds these as a separate data set.

For assay [7] the target is unchanged. Put plainly: cell-based or functional assay. This is another data set of the same source.
For assay [8] the target is unchanged. In words: FACS on HEK293A/human CD40 cells. As for the experimental part: as §2
The source holds these as a separate data set.

The target of assay [9] is T5, monkey CD40 on HEK293A/monkey CD40 cells (monkey, UniProt P25942 21-277 (human entry)).
T5 chain: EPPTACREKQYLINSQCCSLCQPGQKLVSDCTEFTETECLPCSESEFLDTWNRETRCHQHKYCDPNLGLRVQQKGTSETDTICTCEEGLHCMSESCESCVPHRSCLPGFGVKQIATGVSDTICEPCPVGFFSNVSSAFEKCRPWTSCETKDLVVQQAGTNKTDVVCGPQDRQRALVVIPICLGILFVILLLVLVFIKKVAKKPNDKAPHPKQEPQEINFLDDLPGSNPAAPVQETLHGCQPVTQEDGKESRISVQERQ
In words: FACS on HEK293A/monkey CD40 cells. As for the experimental part:
as §2

T4 sequence (Q9NZQ7 19-290 limits assumed): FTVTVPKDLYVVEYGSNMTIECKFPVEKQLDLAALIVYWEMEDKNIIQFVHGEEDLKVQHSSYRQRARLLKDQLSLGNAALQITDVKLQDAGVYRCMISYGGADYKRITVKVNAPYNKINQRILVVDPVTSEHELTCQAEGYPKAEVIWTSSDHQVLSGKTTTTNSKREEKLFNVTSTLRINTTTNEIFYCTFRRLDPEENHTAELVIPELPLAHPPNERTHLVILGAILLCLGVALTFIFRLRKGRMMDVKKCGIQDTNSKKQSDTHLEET
T2 sequence (Q9NZQ7 19-238): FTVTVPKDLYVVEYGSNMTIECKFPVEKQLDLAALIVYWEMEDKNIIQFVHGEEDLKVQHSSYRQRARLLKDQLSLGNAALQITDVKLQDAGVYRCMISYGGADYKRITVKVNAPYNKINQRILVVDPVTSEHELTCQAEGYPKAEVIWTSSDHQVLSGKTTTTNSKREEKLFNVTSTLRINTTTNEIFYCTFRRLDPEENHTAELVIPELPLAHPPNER

B1: MBS307-6 (bispecific antibody, human IgG1, kappa, L234A L235A)
heavy 1: QVQLQESGPGLVKPSDTLSLTCAVSGYSITTNYYWNWIRQPPGKGLEWMGYIKYDGSNNYNPSLKNRITISVDTSKNQFSLKLSSVTAVDTAVYYCARLDYWGQGTLVTVSSASTKGPSVFPLAPSSKSTSGGTAALGCLVKDYFPEPVTVSWNSGALTSGVHTFPAVLQSSGLYSLSSVVTVPSSSLGTQTYICNVNHKPSNTKVDKKVEPKSCDKTHTCPPCPAPEAAGGPSVFLFPPKPKDTLMISRTPEVTCVVVDVSHEDPEVKFNWYVDGVEVHNAKTKPREEQYNSTYRVVSVLTVLHQDWLNGKEYKCKVSNKALPAPIEKTISKAKGQPREPQVYTLPPSREEMTKNQVSLWCLVKGFYPSDIAVEWESNGQPENNYKTTPPVLDSDGSFFLYSKLTVDKSRWQQGNVFSCSVMHEALHNHYTQKSLSLSPGK
heavy 2: QVQLQESGPGLVKPSDTLSLTCAVSGYSITTNYYWNWIRQPPGKGLEWMGYIKYDGSNNYNPSLKNRITISVDTSKNQFSLKLSSVTAVDTAVYYCARLDYWGQGTLVTVSSASTKGPSVFPLAPSSKSTSGGTAALGCLVKDYFPEPVTVSWNSGALTSGVHTFPAVLQSSGLYSLSSVVTVPSSSLGTQTYICNVNHKPSNTKVDKKVEPKSCDKTHTCPPCPAPEAAGGPSVFLFPPKPKDTLMISRTPEVTCVVVDVSHEDPEVKFNWYVDGVEVHNAKTKPREEQYNSTYRVVSVLTVLHQDWLNGKEYKCKVSNKALPAPIEKTISKAKGQPREPQVYTLPPSREEMTKNQVSLSCAVKGFYPSDIAVEWESNGQPENNYKTTPPVLDSDGSFFLVSKLTVDKSRWQQGNVFSCSVMHEALHNHYTQKSLSLSPGSGGGGSGGGGSQVQLQESGPGLVKPSQTLSLTCTVSGGSITSDYWNWIRQHPGNKLEYMGYISYTGSTYYNPSLKSRISITRDTSKNQFSLKLSSVTTADTAVYYCARYRDWDVRAMDYWGQGTTVTVSSGGGGSGGGGSGGGGSGGGGSDIVMTQSPDSLAVSLGEKVTMNCKSSQSLLISGNQKNFLTWYQQKPGQPPKLLIYWASTRESGVPDRFSGSGSGTDFTLTISSLQAEDEAVYYCQNDFGFPFTFGQGTKLTAK
light: DVVLTQSPLSLPVTLGQPASISCRSSQSLENSNGNTFLNWFQQRPGQSPRLLIYKVSNRFSGVPDRFSGSGSGTDFTLKISRVEAEDVGVYYCLQVTHVPFTFGQGTKLEIKRTVAAPSVFIFPPSDEQLKSGTASVVCLLNNFYPREAKVQWKVDNALQSGNSQESVTEQDSKDSTYSLSSTLTLSKADYEKHKVYACEVTHQGLSSPVTKSFNRGEC
notes: Asymmetric: anti-CD40 antibody, knob chain without scFv, hole chain with the anti-PD-L1 scFv of 56E5VH5VL4; also called MBS307-6-1 + MBS307-6-2
As usually defined, the Kd is the constant that tells how readily two partners part at equilibrium. Broadly, the EC50 (read off the curve) is the concentration that produces a half-maximal response. On to B1, for which the Kd in the assay with human CD40-his protein was found to be 3.11 nM; in the assay with human PD-L1-his protein it was 42 nM. For the same molecule, the concentration for a half-maximal effect (EC50 (read off the curve)) in [1] is roughly 0.07 mg/L; in assay [2], roughly 0.6 mg/L. In [3], the “EC50 (read off the curve); HEK-Blue/CD40 reporter, OD630, plate coated with human PD-L1-his” value (shortened to “EC50 (read off the curve) … with human PD-L1-his”) was roughly 0.02 mg/L. Further, the “IC50 (read off the curve)” value in assay [4] is roughly 1 mg/L.

B2: MBS307-7 (bispecific antibody, human IgG1, kappa, L234A L235A)
heavy: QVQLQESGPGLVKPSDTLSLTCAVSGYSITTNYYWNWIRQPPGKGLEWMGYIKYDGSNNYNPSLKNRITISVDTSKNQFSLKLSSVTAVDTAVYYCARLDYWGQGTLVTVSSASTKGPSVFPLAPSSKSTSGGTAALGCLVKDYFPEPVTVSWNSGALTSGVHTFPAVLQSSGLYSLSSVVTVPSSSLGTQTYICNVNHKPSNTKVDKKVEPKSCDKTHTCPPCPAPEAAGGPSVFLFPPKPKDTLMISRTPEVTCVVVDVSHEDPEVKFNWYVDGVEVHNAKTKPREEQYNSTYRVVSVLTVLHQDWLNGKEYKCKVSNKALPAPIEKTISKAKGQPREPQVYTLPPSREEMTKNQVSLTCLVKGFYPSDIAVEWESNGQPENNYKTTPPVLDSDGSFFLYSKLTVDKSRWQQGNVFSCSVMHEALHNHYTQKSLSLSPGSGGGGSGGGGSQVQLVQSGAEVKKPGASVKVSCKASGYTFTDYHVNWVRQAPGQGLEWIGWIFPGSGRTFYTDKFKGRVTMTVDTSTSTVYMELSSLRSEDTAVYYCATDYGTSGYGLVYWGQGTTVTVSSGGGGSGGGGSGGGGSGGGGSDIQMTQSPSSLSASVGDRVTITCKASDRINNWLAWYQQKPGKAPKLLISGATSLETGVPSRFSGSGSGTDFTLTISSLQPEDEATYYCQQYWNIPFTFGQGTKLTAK
light: DVVLTQSPLSLPVTLGQPASISCRSSQSLENSNGNTFLNWFQQRPGQSPRLLIYKVSNRFSGVPDRFSGSGSGTDFTLKISRVEAEDVGVYYCLQVTHVPFTFGQGTKLEIKRTVAAPSVFIFPPSDEQLKSGTASVVCLLNNFYPREAKVQWKVDNALQSGNSQESVTEQDSKDSTYSLSSTLTLSKADYEKHKVYACEVTHQGLSSPVTKSFNRGEC
notes: Symmetric: full-length anti-CD40 antibody with the anti-PD-L1 scFv of 3C2VH6VL5 on each heavy chain
Consider B2, for which the Kd in the assay with human CD40-his protein turned out to be 1.43 nM; in the assay with human PD-L1-his protein it was 11.9 nM. Further, in [5], the “EC50 (read off the curve) … with human PD-L1-his” value was roughly 0.1 mg/L. Moreover, in assay [6], the “EC50 (read off the curve)” value is roughly 0.06 mg/L.

B3: anti-CD40 antibody 7B4VH2VL2 (antibody, V domains shown)
VH: QVQLQESGPGLVKPSDTLSLTCAVSGYSITTNYYWNWIRQPPGKGLEWMGYIKYDGSNNYNPSLKNRITISVDTSKNQFSLKLSSVTAVDTAVYYCARLDYWGQGTLVTVSS
VL: DVVLTQSPLSLPVTLGQPASISCRSSQSLENSNGNTFLNWFQQRPGQSPRLLIYKVSNRFSGVPDRFSGSGSGTDFTLKISRVEAEDVGVYYCLQVTHVPFTFGQGTKLEIK
notes: also called the monospecific anti-CD40 antibody; 714VH2VL2 [sic]
Consider B3, for which the 50% effective concentration (EC50 (read off the curve)) in assay [1] was roughly 0.04 mg/L; in assay [6], roughly 0.03 mg/L; in [8], roughly 0.05 mg/L; in [9], roughly 0.04 mg/L. The figures for the “EC50 (read off the curve) … with human PD-L1-his” value in assay [5], in assay [3] and in assay [7] were roughly 0.1 mg/L, roughly 0.1 mg/L and roughly 0.04 mg/L, respectively.
